# According to the RNAGym collection of RNA variant scans (doi:10.7554/elife.80360):
# B1: Hairpin Ribozyme (parent)
# chain: GUCCUCUUUCACGUGCGCGUGAAAGAGAGAAGUGAACCAGAGAAACACACGUUGUGGUAUAUUACCUGGUA
# Variants of: B1
# Assay: self-cleavage, relative activity (ratio to wild type); higher = more cleavage; co-transcriptional
row,Variant,self-cleavage
1,GUCCUCUUUCACGUGCGCGUGAAAGAGAGAAGUGAACCAGAGAAACACACUUUGUGGUAUAUUACCUGCUA [G51U G69C],0.519
2,GUCCUCUUUCACGUGCGCGUGAAAGAGAGAAGUGAACCAGAGAAACACACUUUGGGGUAUAUUACCUGGUA [G51U U55G],0.222
3,GUCCUCUUUCACGUGCGCGUGAAAGAGAGAAGUGAACCAGAGAAACACACGAUGUGGUAUAUUACCAGGUA [U52A U67A],0.307
4,GUCCUCUUUCACGUGCGCGUGAAAGAGAGAAGUGAACCAGAGAAACACACGAUGUGGUAUAUUACCCGGUA [U52A U67C],0.239
5,GUCCUCUUUCACGUGCGCGUGAAAGAGAGAAGUGAACCAGAGAAACACACGAUGUGGUAUAUUAACUGGUA [U52A C65A],1.06
6,GUCCUCUUUCACGUGCGCGUGAAAGAGAGAAGUGAACCAGAGAAACACACGAUGUGGUAUGUUACCUGGUA [U52A A61G],0.22
7,GUCCUCUUUCACGUGCGCGUGAAAGAGAGAAGUGAACCAGAGAAACACACGAUGUGGUAUUUUACCUGGUA [U52A A61U],0.094
8,GUCCUCUUUCACGUGCGCGUGAAAGAGAGAAGUGAACCAGAGAAACACACUUUGUGGUAUAUUACCUUGUA [G51U G68U],0.318
9,GUCCUCUUUCACGUGCGCGUGAAAGAGAGAAGUGAACCAGAGAAACACACGCUGUGGUAUAUUACAUGGUA [U52C C66A],0.279
10,GUCCUCUUUCACGUGCGCGUGAAAGAGAGAAGUGAACCAGAGAAACACACGCUGUGGUAUAUUACCUGAUA [U52C G69A],0.416
11,GUCCUCUUUCACGUGCGCGUGAAAGAGAGAAGUGAACCAGAGAAACACACUUUGUGGUAUGUUACCUGGUA [G51U A61G],0.112
12,GUCCUCUUUCACGUGCGCGUGAAAGAGAGAAGUGAACCAGAGAAACACACUUUGUGGUAUUUUACCUGGUA [G51U A61U],0.25
13,GUCCUCUUUCACGUGCGCGUGAAAGAGAGAAGUGAACCAGAGAAACACACCUUGUGGUAUGUUACCUGGUA [G51C A61G],0.138
14,GUCCUCUUUCACGUGCGCGUGAAAGAGAGAAGUGAACCAGAGAAACACACCUUGUGGUAUUUUACCUGGUA [G51C A61U],0.196
15,GUCCUCUUUCACGUGCGCGUGAAAGAGAGAAGUGAACCAGAGAAACACACUUUGUGGUGUAUUACCUGGUA [G51U A59G],0.138
16,GUCCUCUUUCACGUGCGCGUGAAAGAGAGAAGUGAACCAGAGAAACACACUUUGUGGUUUAUUACCUGGUA [G51U A59U],0.0798
17,GUCCUCUUUCACGUGCGCGUGAAAGAGAGAAGUGAACCAGAGAAACACACUUUGUCGUAUAUUACCUGGUA [G51U G56C],0.201
18,GUCCUCUUUCACGUGCGCGUGAAAGAGAGAAGUGAACCAGAGAAACACACCAUGUGGUAUAUUACCUGGUA [G51C U52A],0.761
19,GUCCUCUUUCACGUGCGCGUGAAAGAGAGAAGUGAACCAGAGAAACACACCGUGUGGUAUAUUACCUGGUA [G51C U52G],0.469

row,Variant,self-cleavage
1,GUCCUCUUUCACGUGCGCGUGAAAGAGAGAAGUGAACCAGAGAAACACACUUUCUGGUAUAUUACCUGGUA [G51U G54C],0.135
2,GUCCUCUUUCACGUGCGCGUGAAAGAGAGAAGUGAACCAGAGAAACACACCUUGUAGUAUAUUACCUGGUA [G51C G56A],0.197
3,GUCCUCUUUCACGUGCGCGUGAAAGAGAGAAGUGAACCAGAGAAACACACUUUGUGGUAUAUCACCUGGUA [G51U U63C],0.136
4,GUCCUCUUUCACGUGCGCGUGAAAGAGAGAAGUGAACCAGAGAAACACACUUUGUGAUAUAUUACCUGGUA [G51U G57A],0.122
5,GUCCUCUUUCACGUGCGCGUGAAAGAGAGAAGUGAACCAGAGAAACACACCUUCUGGUAUAUUACCUGGUA [G51C G54C],0.215
6,GUCCUCUUUCACGUGCGCGUGAAAGAGAGAAGUGAACCAGAGAAACACACCUUUUGGUAUAUUACCUGGUA [G51C G54U],0.404
7,GUCCUCUUUCACGUGCGCGUGAAAGAGAGAAGUGAACCAGAGAAACACACAUUGAGGUAUAUUACCUGGUA [G51A U55A],0.34
8,GUCCUCUUUCACGUGCGCGUGAAAGAGAGAAGUGAACCAGAGAAACACACAUUGGGGUAUAUUACCUGGUA [G51A U55G],0.407
9,GUCCUCUUUCACGUGCGCGUGAAAGAGAGAAGUGAACCAGAGAAACACACAUUGCGGUAUAUUACCUGGUA [G51A U55C],0.405
10,GUCCUCUUUCACGUGCGCGUGAAAGAGAGAAGUGAACCAGAGAAACACACCUUGUGGUAUAUUUCCUGGUA [G51C A64U],0.0968
11,GUCCUCUUUCACGUGCGCGUGAAAGAGAGAAGUGAACCAGAGAAACACACUUUGUGGUAUAUUACCCGGUA [G51U U67C],0.299
12,GUCCUCUUUCACGUGCGCGUGAAAGAGAGAAGUGAACCAGAGAAACACACUUUGUGGUAAAUUACCUGGUA [G51U U60A],1.11
13,GUCCUCUUUCACGUGCGCGUGAAAGAGAGAAGUGAACCAGAGAAACACACGAUGUGGUAUAAUACCUGGUA [U52A U62A],0.24
14,GUCCUCUUUCACGUGCGCGUGAAAGAGAGAAGUGAACCAGAGAAACACACGAUGUGGUAUAUUACCUGCUA [U52A G69C],0.268
15,GUCCUCUUUCACGUGCGCGUGAAAGAGAGAAGUGAACCAGAGAAACACACAUUGUGGUAUAUUACCGGGUA [G51A U67G],0.628
16,GUCCUCUUUCACGUGCGCGUGAAAGAGAGAAGUGAACCAGAGAAACACACCUUGAGGUAUAUUACCUGGUA [G51C U55A],0.19
17,GUCCUCUUUCACGUGCGCGUGAAAGAGAGAAGUGAACCAGAGAAACACACGAUGUGGUAUAUGACCUGGUA [U52A U63G],0.121
18,GUCCUCUUUCACGUGCGCGUGAAAGAGAGAAGUGAACCAGAGAAACACACAUUGUGGUAUAUUACCUGUUA [G51A G69U],0.439
19,GUCCUCUUUCACGUGCGCGUGAAAGAGAGAAGUGAACCAGAGAAACACACAUUGUGGUAUAUUACCUGAUA [G51A G69A],0.596
